{"source": "patent US20070099268A1", "about": "“Chimeric HCN channels” (priority 2005, published 2007)", "molecules": {"B1": {"name": "mHCN2: mouse HCN2 hyperpolarization-activated, cyclic nucleotide-gated channel, wild type (GenBank AJ225122) (protein)", "chain": "MDARGGGGRPGDSPGTTPAPGPPPPPPPPAPPQPQPPPAPPPNPTTPSHPESADEPGPRARLCSRDSACTPGAAKGGANGECGRGEPQCSPEGPARGPKVSFSCRGAASGPSAAEEAGSEEAGPAGEPRGSQASFLQRQFGALLQPGVNKFSLRMFGSQKAVEREQERVKSAGAWIIHPYSDFRFYWDFTMLLFMVGNLIIIPVGITFFKDETTAPWIVFNVVSDTFFLMDLVLNFRTGIVIEDNTEIILDPEKIKKKYLRTWFVVDFVSSIPVDYIFLIVEKGIDSEVYKTARALRIVRFTKILSLLRLLRLSRLIRYIHQWEEIFHMTYDLASAVMRICNLISMMLLLCHWDGCLQFLVPMLQDFPSDCWVSINNMVNHSWSELYSFALFKAMSHMLCIGYGRQAPESMTDIWLTMLSMIVGATCYAMFIGHATALIQSLDSSRRQYQEKYKQVEQYMSFHKLPADFRQKIHDYYEHRYQGKMFDEDSILGELNGPLREEIVNFNCRKLVASMPLFANADPNFVTAMLTKLKFEVFQPGDYIIREGTIGKKMYFIQHGVVSVLTKGNKEMKLSDGSYFGEICLLTRGRRTASVRADTYCRLYSLSVDNFNEVLEEYPMMRRAFETVAIDRLDRIGKKNSILLHKVQHDLSSGVFNNQENAIIQEIVKYDREMVQQAELGQRVGLFPPPPPPQVTSAIATLQQAVAMSFCPQVARPLVGPLALGSPRLVRRAPPGPLPPAASPGPPAASPPAAPSSPRAPRTSPYGVPGSPATRVGPALPARRLSRASRPLSASQPSLPHGVPAPSPAASARPASSSTPRLGPAPTARTAAPSPDRRDSASPGAASGLDPLDSARSRLSSNL"}}, "key": {"Xenopus oocytes": {"tested_on": "Xenopus oocytes", "assay": "Two-microelectrode voltage clamp of mHCN2 and mE324A expressed in Xenopus oocytes", "assay_type": "cell-based, Xenopus laevis", "procedure": "Oocytes were prepared from mature female Xenopus laevis in accordance with an approved protocol as previously described (Yu et al., 2004).\nFor expression of HCN in Xenopus oocytes, oocytes were injected with 5 ng of cRNA made from mouse wild-type mHCN2 and mutant mHCN2 (E324A) plasmids. Injected oocytes were incubated at 18° C. for 24-48 h prior to electrophysiological analysis.\nFor measurements in Xenopus oocytes, oocytes were voltage-clamped using a two-microelectrode voltage clamp technique. The extracellular recording solution (OR2) contained (in mM): NaCl, 80; KCl, 2; MgCl2, 1; and Na-HEPES, 5 (pH 7.6). For the recording of steady state activation of expressed Wt mHCN2, currents were elicited by 2-s long hyperpolarizing pulses between −30 mV and −160 mV with 10 mV increments, followed by a 1-s depolarizing pulse to +15 mV. The holding potential was −30 mV. As to the mHCN2 (E324A), currents were elicited by 3-s-long hyperpolarizing pulses between +20 mV and −130 mV with 10 mV increments, followed by a 1 second depolarizing pulse to +50 mV. The holding potential was +20 mV. To construct the current/voltage relationship for wildtype (Wt) mHCN2, the cell was held at […], the current was elicited by a 2-s hyperpolarizing voltage step to −140 mV to saturate activation, and followed by 2-s depolarizing voltage steps between […] and +50 mV in 10 mV increments. For mHCN2 (E324A), the cell was held at +20 mV, current was elicited by a 1.5-s hyperpolarizing voltage step to −110 mV to saturate activation, and then followed by 1.5-s depolarizing voltage steps between −80 mV and +50 mV in 10 mV increments for the recording of tail currents. To record the current amplitudes for Wt mHCN2, the current was evoked by applying a 3-s hyperpolarizing voltage pulse to −120 mV from a holding potential of −30 mV. For mHCN2 (E324A), the current was evoked by applying a 3-s hyperpolarizing voltage pulse to −120 mV from a holding potential of +20 mV."}, "oocyte": {"tested_on": "oocyte", "conditions": "cited from earlier work"}, "[1]": {"tested_on": "mammalian expression systems", "conditions": "cited from earlier work"}, "[2]": {"tested_on": "neonatal ventricular myocytes", "assay": "Voltage clamp (tail currents) of HCN2 expressed with AdHCN2 in neonatal ventricular myocytes", "assay_type": "cell-based, rat", "procedure": "For increased expression efficiency, an adenoviral construct for mHCN2 was prepared. Gene delivery and transfer procedures followed previously published methods (Ng et al., 2000; He et al., 1998). A DNA fragment (between EcoRI and XbaI restriction sites) that included mHCN2 DNA downstream of the CMV promoter was obtained from plasmid pTR-mHCN2 (Santoro and Tibbs, 1999) and subcloned into the shuttle vector pDC516 (AdMax™; Microbix Biosystems, Toronto, Canada). The resulting pDC516-mHCN2 shuttle plasmid was co-transfected with a 35.5 kb El-deleted Ad genomic plasmid pBHGΔE1,3FLP (AdMax™) into El-complementing HEK293 cells. […]\nThe whole-cell voltage clamp technique was employed to record native If or expressed IHCN2 or IHCN4. Action potentials were recorded in current clamp mode, again using a whole cell patch electrode. […]\nThe activation relation of the native or expressed current can be determined from the steady-state I-V relation. In this case, the reversal potential (Vf) was separately determined from the fully activated I-V relation (Accili et al., 1991) and used to generate the activation relation (y=I/(gmax*(V−Vf)), where gmax is the maximal conductance). […] Tail currents were measured at a negative voltage (−125 mV) to avoid contamination by transient outward and other currents at less negative voltages. […]"}, "[3]": {"tested_on": "cell-free patches from Xenopus oocytes", "conditions": "cited from earlier work"}}, "note": "Entries after “also recorded” stand apart in the source; their conditions may differ.", "data": [{"molecule": "B1", "values": [{"measurement": "voltage at which currents saturated", "setting": "Xenopus oocytes", "value": "around −130 mV"}, {"measurement": "slope (s) with cAMP", "setting": "Xenopus oocytes; 8-Br-cAMP 1 mM", "value": 9.5, "unit": "mV"}, {"measurement": "Vh with cAMP", "setting": "Xenopus oocytes; 8-Br-cAMP 1 mM extracellular", "value": "−84.9", "unit": "mV"}, {"measurement": "effect of Cs+ on inward current", "setting": "Xenopus oocytes; Cs+ 5 mM", "value": "blocked; also recorded: large inhibition"}, {"measurement": "slope (s), control", "setting": "Xenopus oocytes; control", "value": 13.9, "unit": "mV"}, {"measurement": "activation more negative than mE324A", "setting": "Xenopus oocytes; oocytes", "value": 35, "unit": "mV"}, {"measurement": "half maximal activation (Vh), control", "setting": "Xenopus oocytes; oocytes, control", "value": "−92.7", "unit": "mV"}, {"measurement": "induced current", "setting": "Xenopus oocytes; single voltage pulse to −120 mV", "value": "912.7±63.7", "unit": "nA"}, {"measurement": "midpoint of activation", "setting": "oocyte", "value": "−78", "unit": "mV"}, {"measurement": "midpoint of activation reported in other mammalian expression studies", "setting": "[1]", "value": "−83 to −97", "unit": "mV"}, {"measurement": "shift of voltage dependence by saturating cAMP, neonate", "setting": "[2]; 10 μM cAMP in the pipette", "value": 17, "unit": "mV"}, {"measurement": "slope factor (K), neonatal myocytes", "setting": "[2]; AdHCN2", "value": "9.8±0.6", "unit": "mV"}, {"measurement": "shift of activation curve to more positive potentials by cAMP", "setting": "[3]; binding of cAMP to the CNBD", "value": 17, "unit": "mV"}, {"measurement": "steady-state activation curve more hyperpolarized than that of HCN1", "setting": "[3]", "value": 20, "unit": "mV"}]}]}
